Measured values published in a protein production outcome set (Wang et al. 2014).

Assay: label from the status in PepcDB records

Protein production, failed:
MSFADLGLSDKVLQAVTTAGYTEPTPIQAQAIPHVLARRDVLGIAQTGTGKTAAFTLPMLTMLETGRARARMPRTLILEPTRELAAQVEENFERYGTNHKLNVALIIGGVSFADQDAKLTRGTDVLIATPGRLLDHFERGKLLLTGVELLVIDEADRMLDMGFIPDIERIVKMVPFTRQTLFFSATMPPEIERLADMFLHNPQRVEVARPASTATTIEQRLVATGAEGHEKRKVLRHLIRSASELQNGIIFCNRKRDVAQLQRSLTSHGFNAAALHGDMDQRARMAALDGFRSGEVPLLVASDVAARGLDIPAVSHVFNFDVPHHPEDYVHRIGRTGRAGRSGQAFTLASRSDERSLSAIESLIGQPIAWLDGDLASVSDEVEGDEPRRRRGSRRAKETKGGEETKSGGRSTERSAAPASESPRSENRSRGGRRPAAERSRADAPRRDPVREPEPVAVVPSAPPAPPRELAREPVRSAPERARGERRPPRRDEDGETPVGLGSHVPAFLLKPTGFGKSK
MSFAIEALGQGRFDEVEILCREILKEVPDHFHATHLLGLRAFDGGWLEDAQFLLERAVALDPRSPDAHGNLGAVYFALERFKDARACQEKAIALKPNCPITLTNLGNTLLHLGLAKEAIELHERAIRLKPNYADAFCNRGMAELMIGQFERAGVDFDRALSFQPRHAEAIAGKAMVSLELRHFEAAEAAFEASLALKPGSPRILVQRGRLHLTLYRLEQAAADFDAALAQSPRNELALCWRAQVDIMVRNTAGAMAGVKTLLEVNPQSEAGMSLLASCHANQGDIATALEYLDAALAIAPDFPEAIGYKIFVLDYLPEADFVVQQAARKYWWDQIGAKLPQRTLSPRDLDPDRRIVIGYVASEFRQHSAAYTLLPVMRHHDHAKFKIVCYSCWPLQDGMTEKFKACADVWVEAAQFSDDELADRIQADGIDILIDVSGHTTGSRLHVFSRKPAPIQVTGFGHATGTGLQTMDYVLADPIFIPQSARHLLAEKVYDLPSLITIDPIQDVPPSELPMLRNGYVTFGVFNRILKISDEAIRVWSKVMREVAGSKIIIKNGLLDDPMLRDGLIARFVAQGIAEENVICMGSTSRREHLRAFANVDISLDTFPQNGGISTWESLYAGVPVVAKLGNGSSSRAGGSIVAAVGLGDWVADDDEGYAAIACKFAAQPAHLAKLRADLPAQIANSPAGNVEIYTREVEAGYRQFWRDYCAEASETCDVA
MSFDPIYFLTPIIVMVFSFGMVYKLVKSIKVLMFSALAYFIAIVLKVLVQFFTLGYLASINSLAVLGLYYGLQTSIFEVGLAYVFALLGKLKNGWGYGVSLAMWENGVLISIPTLFIYIAYYFFPLILSTPSQLEYPITQALPLIGLSILERVSSLLIHSSWGYLSVLSVITGRKRLILVAFPMGFVDFLVPFEKYLGILTFEFIFFCIGLICLVMAWSLGKYYRSTSSKDT
MSFDRNLCKVLVADDSRLVTSSVTAILRQLDLSDIYYAYKPFEVINLCKQMHFDLVICDYNFQTQLNGFQLLEELKHAQILPAHTTFVFLTGENDHKIVRSIVDCDPDDYLLKPFNHTFFRNRLLSAMKRRSVLLPIYEKLREMDFEGVIEATDTLLPFHPEYSKLIRRYRAHAMVQNKQFSSARSEYEKLLKEDNFDWIKTALANTLIETDNLEKAQEVLESLSSKKENPYYHDEMSNMAVLSEDIPKAIKHLKQSTMLLDAGSERELVITNLSLASESYDDAVTYIKRYYEKNENTFRGGIFTKLNFVRCHLYRSLNAPSNQCFENLLFGLNPLIGEIEKNSQFKAQFALIDAHIALIRGDLKAAISQVRAVLASNQLSHFYDLYHLCVLLERCSFLSEMKSMLPRARRAIAEAQHPSIFRSQVHMLKSLEMRLQESQTKIEQIRRQITAQKSISTSAITPHFDRYFQLHDLLPHSKKICLAIVRLASLRPFEYRGEYAIYRKLEHCDRVIRNLCDNRELQSIKYNNMYQYAKQNITVSNG
MSFLKPKTHIEKGDVVILYLSVSSMHAIEAVPEIVNKKGETIPHIFQTNYGSLKVENIIGVEYGSKVELSKGWAHVLQPTPELWTQTLPHRTQIIYTPDISMIIHQLEVRPGAVVVESGTGSGSLSHYFLRALKPTGHLHTFDFHEARADQARDEFRRHGIADFVTVYHRDVCNLGFGAELDGKADAVFLDLPAPDLAVPHAFKALKLSGGRFCSFSPCIEQSQRCIQELTKLGFNEIVSLEVLQQENVVKTRTLPVIDLEFLKLPKTDETTAATNALESKAPKEVKKYLTSSNPQTLPGHTGFLTFATLPPNIPKA
MSFRTGERRIWDATATLEALGAADVALWIWEPETDRLRLNGAARALGLGPLAPECSSAAFRALALPQDRAQAEEVLKPREPGSEVVARFRVRGGETCLWRGVWLEEGVRAAGVVAPETKFSASELCDLTGLLDRRSFLARARERLAQEGTHQLVVADLDRLRRLNEALGHERADLVLAALGSRLAAAFPAQSILGRIGEDEFAVLCQPLGYEPSDVLRSALEQPLRVAGFDIHPTLSIGAVSAEGGLDAPDAAELLRRAELAVEAAAAAGRGGAAAYGRAMETDGLSRLALEADLRGAIGRGEITPYFQPIVRLSTGALSGFEALARWIHPRRGMLPPDEFLPLIEEMGLMSELGAHMMHAAAQQLSTWRAAHPAMGNLTVSVNLSTGEIDRPGLVADVAETLRVNRLPRGALKLEVTESDIMRDPERAAVILKTLRDAGAGLALDDFGTGFSSLSYLTRLPFDTLKIDRYFVRTMGNNAGSAKIVRSVVKLGQDLDLEVVAEGVENAEMAHALQSLGCDYGQGFGYAPALSPQEAEVYLNEAYVDGAAPVKARG
MSFSADALEGGLSSLKLAADKYRSILNDEKTGNIRWRYGGPPIFDTVNKLFEEERTHVQWRYDNPPDFNSVNQLFEEGQTKVWPEGSLEETVQNAIKSWEMEFSHKIRLQDFKTINPEKFKLFVNGREGLSAEETLRLGSYNALLKNSLPEEFQYYKPEEESFESSHDAFRSALPRGFAWEILSVYSGPPVIAFKFRHWGYFEGTFKGHAPTGEMVQFLGLGVLKVDESLRAEEIEIYYDPGELFGGLLKGPPISETKTTDSGDNTAEKQSCPFTH
MSFSDSESSSHGGGGGDYKFFRQISRDRLLHEMLGSTKTGDSKAWKILIMDRVTVKVMSQSCKMADITDQGISLVEELFKRREPMPGMDAIYFIQPSKENIVMFLSDMSGREPLYRKAFIFFSSTIPKELVNHIKSDSSVLPRIGALREMNMEYFPIDNQGFLTDHEQALETLYAEDAENSRHFHICLNIMATRIATVFASLKELPFVRYRAAKSTASRDLVPSKLAAAIWDCISKYKAIPNFPQTETCELLIVDRSVDQVLRLIYYIYSSSPY
MSFSLWLLVLGCILLTLGLASAYLRLLPVSTSFIYLLFGLAIGPAGLHAWRSGLADISGWFEHLSEAALLISLFIGGLKLRLPLRSPAWTAAWLLAGPVLLGCILGLTLGAHFLFGLDWGLALLVAAILAPTDPVLASDIQVNHAGDDDRLRYAVSGEAGLNDGIAFPFVIAALLLIGQGGGLPGEFDRSGLDWLLRDVLWAIPLGLLVGYCLGHGLGRLAIHLRARHTDTSVSANDFLALALIALSYVGADALGGWGFLASFAAGIGLRHAEVATLGRASAPAEAQAAAADVREAGQASGAIEYGADRSEHPKVAAGAVMLDVLSFGNLLERSLEVLLVTLLGAMLYQHWDWRALPLALLLFCVCRPAMVWLLVGRRLMHPAQRRLLGWFGIRGIGSLYYLSYALNQGLPTALAHTASDLVLSLVALSICVHGLSIQPLLMRHARSVSRRDRE
MSFVAGVIRRLDETVVNRIAAGEVIQRPANAIKEMIENCLDAKSTSIQVIVKEGGLKLIQIQDNGTGIRKEDLDIVCERFTTSKLQSFEDLASISTYGFRGEALASISHVAHVTITTKTADGKCAYRASYSDGKLKAPPKPCAGNQGTQITVEDLFYNIATRRKALKNPSEEYGKILEVVGRYSVHNAGISFSVKKQGETVADVRTLPNASTVDNIRSIFGNAVSRELIEIGCEDKTLAFKMNGYISNANYSVKKCIFLLFINHRLVESTSLRKAIETVYAAYLPKNTHPFLYLSLEISPQNVDVNVHPTKHEVHFLHEESILERVQQHIESKLLGSNSSRMYFTQTLLPGLAGPSGEMVK
MSGAGKKIADVAFKASRTIDWDGMAKVLVTDEARREFSNLRRAFDEVNTQLQTKFSQEPEPIDWDYYRKGIGAGIVDKYKEAYDSIEIPKYVDKVTPEYKPKFDALLVELKEAEQKSLKESERLEKEIADVQEISKKLSTMTADEYFEKHPELKKKFDDEIRNDNWGY
MSGDEAVAAPVVPPVAEAAVIPEDMDVSTALELTVRKSRAYGGVVRGLHESAKLIEKRNAQLCVLAEDCNQPDYVKLVKALCADHSIKLLTVPSAKTLGEWAGLCKIDSEGNARKVVGCSCLVIKDFGEETTALNIVKKHLDSN
